Read-outs that look alike come from different tables or passages of the source.

In patent US20220306734A1 (H LUNDBECK A S, published 2022) one finds mGluR5 (FL) cell binding-fold over background, EC50 and pERK Assay Inhibition IC50-nM data, which are given here for 11 molecules.

Assay [1] concerns the target full-length (FL) human mGluR5 on BA/F3-mGluR5 clone 10C9 cells (human) (UniProt P41594). In words: flow cytometry, BA/F3-mGluR5 10C9 cells, 10 ug/ml antibody.
Assay [2] has as its target human mGluR5 extracellular domain (human-mGluR5-ECD) (human) (UniProt P41594). The assay is described as follows: HTRF, soluble ECD. Background: In TR-FRET formats the signal depends on donor and acceptor labels being close together.
The target is the same in assay [3]. In words: HTRF, soluble ECD. The source holds these as a separate data set.
The target of assay [4] is full-length (FL) human mGluR5 on BA/F3-mGluR5 clone 10C9 cells (human) (UniProt P41594). In words: cell-based or functional assay.
Assay [5] concerns the target T1, rat mGluR5 extracellular domain (rat-mGluR5-ECD) (rat, UniProt P31424 21-504).
T1 construct: ECD construct made 'in a similar fashion' to the human one
In words: HTRF, soluble ECD. Here is the method:
Binding of antibodies to mGluR5/mGluRJ measured via Homogeneous Time-Resolved Fluorescence (HTRF). Binding assays were performed using HTRF reagents from CisBio. Ten microliters of an antibody dilution series (highest final concentration of 30 nM) was incubated with 10 μl of mGluR-ECD (10 nM final concentration) in HTRF buffer (50 mM Phosphate buffer pH7, 0.8M KF (potassium fluoride), 0.2% BSA). Twenty microliters of Europium-labeled anti-hu-Fc donor (2 nM final concentration, CisBio Catalog No. 61HFCKLB) and 20 μl of XL665-labeled anti-Flag acceptor (60 nM final concentration, CisBio Catalog No. 61FG2XLB) were added to each well and incubated for 1 hour at room temperature. Alternatively, the antibody dilution series was incubated with 10 μl of biotinylated mGluR-ECD (10 nM final concentration), and 20 μl of Europium-labeled anti-hu-Fc donor (2 nM final concentration) and 20 μl of d2-labeled streptavidin acceptor (60 nM final concentration, CisBio Catalog No. 610SADLB) were added to each well. Fluorescence was measured at 620 and 665 nm with a delay of 300 μsec. Results were expressed as the ratio of signal at 665 nm over 620 nm. EC₅₀ values were calculated for binding of Ab1-Ab23 to human-mGluR5-ECD, of Ab1-Ab21 to rat-mGluR5-ECD, and of Ab1, Ab2 and Ab4-Ab12 to monkey-mGluR5-ECD and to human-mGluR1-ECD (TABLE 1).

T1 sequence (P31424 other isoform, or with tags, fused parts or gaps limits assumed, form in doubt): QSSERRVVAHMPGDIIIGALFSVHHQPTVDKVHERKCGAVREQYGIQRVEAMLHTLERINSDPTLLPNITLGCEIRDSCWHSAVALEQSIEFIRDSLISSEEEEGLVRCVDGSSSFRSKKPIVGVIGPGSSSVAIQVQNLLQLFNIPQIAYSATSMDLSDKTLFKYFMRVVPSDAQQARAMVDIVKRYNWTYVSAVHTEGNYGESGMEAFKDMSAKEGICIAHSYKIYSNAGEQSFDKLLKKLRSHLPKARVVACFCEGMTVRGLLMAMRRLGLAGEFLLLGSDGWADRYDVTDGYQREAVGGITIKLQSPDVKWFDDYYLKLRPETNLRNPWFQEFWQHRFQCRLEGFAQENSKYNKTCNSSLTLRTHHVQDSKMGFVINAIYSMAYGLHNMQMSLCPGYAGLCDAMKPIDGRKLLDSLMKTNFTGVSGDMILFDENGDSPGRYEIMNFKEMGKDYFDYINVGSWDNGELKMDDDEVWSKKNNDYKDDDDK
human mGluR5 extracellular domain (human-mGluR5-ECD) (human), sequence (P41594 other isoform, or with tags, fused parts or gaps): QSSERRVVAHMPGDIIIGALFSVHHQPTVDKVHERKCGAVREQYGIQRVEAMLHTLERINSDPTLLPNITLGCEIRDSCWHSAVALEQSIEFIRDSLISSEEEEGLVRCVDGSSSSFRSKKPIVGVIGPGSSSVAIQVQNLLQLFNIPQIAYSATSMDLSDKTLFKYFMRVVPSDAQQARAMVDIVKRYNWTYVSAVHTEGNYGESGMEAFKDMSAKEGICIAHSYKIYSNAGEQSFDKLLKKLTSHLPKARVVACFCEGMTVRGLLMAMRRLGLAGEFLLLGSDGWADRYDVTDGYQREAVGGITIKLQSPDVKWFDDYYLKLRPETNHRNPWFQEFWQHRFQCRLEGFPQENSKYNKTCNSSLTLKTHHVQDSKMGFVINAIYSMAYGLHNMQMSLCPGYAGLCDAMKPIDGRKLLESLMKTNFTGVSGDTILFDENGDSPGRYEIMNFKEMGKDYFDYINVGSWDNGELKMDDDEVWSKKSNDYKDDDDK

B1: mGluR5 Ab20 (antibody, V domains shown)
VH: QSVEESGGRLVTPGTPLTLTCTVSGFSLSDYGLNWVRQAPGKGLEWIGIIYASGSTYYANWAKGRFTISKTSTTVDLKMTSPTTEDTATYFCVRDSSATYDYFNLWGPGTLVTVSS
VL: YDMTQTPASVEVAVGGTVTIKCQASQSISSYLAWYQQKPGQPPRLLIYGASNLASGVPSRFKGSGSGTEYTLTISDLECADAATYYCQQALSPSNVDNAFGGGTEVVVKR
Regarding B1, the mGluR5 (FL) cell binding-fold over background in assay [1] worked out at 26.1 fold. Also, the results for the EC50 in assay [2] and in assay [3] were 0.364 nM and under 2 nM, respectively. Besides, the pERK Assay Inhibition IC50-nM in assay [4] stood at 2.36 nM.

B2: mGluR5 Ab16 (antibody, V domains shown)
VH: QSVEESGGRLVTPGTPLTLTCTASGFTISSYSMIWVRQAPGKGLESIGWINTGGSAYYANWAKGRFTISRTSTTVDLKMTSLTTEDTATYFCARDNNWSFNLWGQGTLVTVSS
VL: DIVMTQTPSSVSAAVGGTVTIKCQASQSIGTNLAWYQQKSGQPPKRLTYRASNLESGVPSRFKGSGSGTEFTLTISDLECADAATYYCQGGYYREGNSPTYPFGGGTEVVVKR
notes: Rabbit variable regions on human heavy and light chain constant regions (chimeric)
Regarding B2, the EC50 was 0.427 nM in assay [5], 0.439 nM in assay [2] and under 2 nM in assay [3]. In assay [1], this molecule had a mGluR5 (FL) cell binding-fold over background of 40 fold. This molecule also displayed a pERK Assay Inhibition IC50-nM in assay [4] of 0.17 nM.

B3: mGluR5 Ab13 (antibody, V domains shown)
VH: QSLEESGGDLVKPGASLTLTCTASGFSFSSSDYMCWVRQAPGKGLEWIGCIYTGDGTTYYASWAKGRFTISKTSSTTVTLQMTSLTAADTATYFCARGAGVGSYGYNLWGPGTLVTVSS
VL: DIVMTQTPASVEAAVGDTVTINCQASQNIYSNLAWYQQKPGQPPKLLIYRASTLASGVPSRFKGSGSGTQFTLTISDLECADAATYYCQSYYASSISNYFGGGTEVVVKR
notes: as for B2
For the molecule B3, the EC50 is 0.283 nM in assay [5], 0.183 nM in assay [2] and under 2 nM in assay [3]. The mGluR5 (FL) cell binding-fold over background in assay [1] is 37.4 fold. The molecule further displayed a pERK Assay Inhibition IC50-nM in assay [4] of 0.22 nM.

B4: mGluR5 Ab15 (antibody, V domains shown)
VH: QQLVESGGGLVKPGGTLTLTCKGSGIDFNDYYYICWVRQAPGKGLEWILCIYNGDGETYYANWAKGRFTISKTSSTTVTLQMTSLTGADTATYFCARGSGVGSYGYNFWGQGTLVTVSS
VL: DIVMTQTPASVEAAVGGTVTIKCQASENIYSNLAWYQQKPGQPPKLLIYRASNLASGVPSRFKGSGSGTEFTLTISDLECADAATYYCQGYYASTVTNGFGGGTEVVVKR
notes: as for B2
As for B4, the EC50 in assay [5] is 0.448 nM; in assay [2] it was 0.506 nM; in assay [3] it was under 2 nM. For the same molecule, the mGluR5 (FL) cell binding-fold over background in assay [1] stood at 41.3 fold. Further, the pERK Assay Inhibition IC50-nM in assay [4] stood at 0.18 nM.

B5: mGluR5 Ab18 (antibody, V domains shown)
VH: QQQLEESGGGLVKPGGTLTLTCKASGLDFSNYHYMCWVRQAPGKRPEWIACIYNGDGTTYDASWAKGRFTSSKTSSTTVTLQMTSLTAADTATYFCARGSGVGSYGYNLWGQGTLVTVSS
VL: DIVMTQTPASVEAAVGGTVTIKCQASESIYSNLAWYQQKPGQPPKLLIYRASTLESGVPSRFKGSGSGTEFTLTISDLECADAATYYCQGYYASIITNAFGGGTEVVVKR
notes: as for B2
Turning to B5, the EC50 was 0.395 nM in assay [5], 0.491 nM in assay [2] and under 2 nM in assay [3]. In assay [1], the mGluR5 (FL) cell binding-fold over background stood at 39.6 fold. This molecule registered a pERK Assay Inhibition IC50-nM in assay [4] of 0.15 nM.

B6: mGluR5 Ab23 (antibody, V domains shown)
VH: QQQLEESGGGLVKPGGTLTLTCKASGIDFNDYYYMCWVRQAPGKGPEWIACIYNGDGDTYYANWAKGRFTISKTSSTTVTLQMTSLTAADTATYFCARGSGVGSYGYNLWGQGTLVTVSS
VL: DIVMTQTPASVEAAVGGTVTIKCQASESIYSNLAWYQQKPGQPPKLLIYRASTLASGVPSRFKGSGSGTEFTLTISDLECADAATYYCQGYYASTITNVFGGGTEVVVKR
In assay [1], B6 returned a mGluR5 (FL) cell binding-fold over background of 37.9 fold. Besides, the EC50 in assay [2] was 0.367 nM; in assay [3], under 2 nM. Moreover, in assay [4], the pERK Assay Inhibition IC50-nM stood at 0.14 nM.

B7: mGluR5 Ab21 (antibody, V domains shown)
VH: QSLEESGGGLVQPGASLTLTCTASGFSFSSNYWICWVRQAPGKGLEWIGCIYTGTGITWYASWVNGRVTISSTSSTTVTLQVNSLTAADTATYFCARGSGDIAWAWDLWGQGTLVTVSS
VL: DVVMTQTPASVSAAVGGTVTIKCQASQSIYTNLAWYQQKPGQPPKLLIYKASTLASGVSSRFKGSGSGTEFTLTISGVQCADAATYYCQCTGYGSSGWTFGGGTEVVVKR
notes: as for B2
On to B7, for which the figures for the EC50 in assay [5], in assay [2] and in assay [3] were 0.229 nM, 0.684 nM and under 2 nM, respectively. The same molecule returned a mGluR5 (FL) cell binding-fold over background in assay [1] of 34.2 fold. This molecule had a pERK Assay Inhibition IC50-nM in assay [4] of 1.41 nM.

B8: mGluR5 Ab19 (antibody, V domains shown)
VH: QEQLEESGGDLVKPEGSLTLTCTASGFSFSNYYYMCWVRQAPGKGLEWIACIYTSSGSTYYANWVNGRFTISRSTSLNTVTLQVTSLTAADTATYFCAKSFGVGGYSFNLWGQGTLVTVSS
VL: AYDMTQTPASVEVAVGGTVTIKCQASQSISSYLSWYQQKPGQRPKLLIYRASTLASGVSSRFKGSGSGTEYSLSISGMECDDAATYYCQQGTTISDVDNVFGGGTEVVVKR
notes: as for B2
For B8, the EC50 was 0.327 nM in assay [5], 0.453 nM in assay [2] and under 2 nM in assay [3]. The molecule also gave a mGluR5 (FL) cell binding-fold over background in assay [1] of 38.3 fold. The same molecule gave a pERK Assay Inhibition IC50-nM in assay [4] of 1.07 nM.

B9: mGluR5 Ab3 (antibody, V domains shown)
VH: QSLEESGGRLVTPGTPLTLTCTVSGIDLSSYAVGWVRQAPGKGLEYIGIIYASGNTWYASWVKGRFTISKTSTTVDLKLASLTTEDTATYFCARGHGATYDYFNLWGPGTLVTVSS
VL: AYDMTQTPASVEVAVGGTVTIKCQASQSISSYLAWYQQKPGQPPKLLIYDASDLASGVPSRFKGSGSGTEYTLTISGVQCDDAATYYCQQGLATANVDNVFGGGTEVVVKR
notes: as for B2
For B9, the EC50 is 0.487 nM in assay [5], 0.536 nM in assay [2] and under 2 nM in assay [3]. Further, the mGluR5 (FL) cell binding-fold over background in assay [1] is 31.1 fold. This molecule also had a pERK Assay Inhibition IC50-nM in assay [4] of 3.91 nM.

B10: mGluR5 Ab14 (antibody, V domains shown)
VH: QQQLEESGGGLVKPGGTLTLTCKGSGIDFNDYYYMCWVRQAPGKGLEWIACIYNGDGETYYANWAKGRFTISKTSSTTVTLQMTSLTAADTATYFCARGSGVGSYGYNFWGQGTLVTVSS
VL: DIVMTQTPASVEAAVGGTVTIKCQASESIYSNLAWYQQKPGQPPKLLIYRASNLASGVPSRFKGSGSGTEFTLTISDLECADAATYYCQGYYASTVTNAFGGGTEVVVKR
notes: as for B2
B10: the results for the EC50 in assay [5], in assay [2] and in assay [3] were 0.308 nM, 0.371 nM and under 2 nM, respectively. The same molecule gave a mGluR5 (FL) cell binding-fold over background in assay [1] of 40.6 fold. In assay [4], this molecule gave a pERK Assay Inhibition IC50-nM of 0.15 nM.

B11: mGluR5 Ab17 (antibody, V domains shown)
VH: QRQLEESGGGLVKPGGALTLTCKASGIDFSSYYYICWVRQAPGKGLEWIACIYAGDGTTYYATWAEGRFTSSKTSSTTVTLQMTSLTAADTATYFCARGSGVGSYGYNLWGQGTLVTVSS
VL: DIVMTQTPASVEAAVGGTVTIKCQASEYIYSNLAWYQQKPGQPPKLLIYRASTLESGVPSRFKGSGSGTEFTLTISDLECADAATYYCQGYFPSIITNAFGGGTEVVVKR
notes: as for B2
As to B11, the EC50 in assay [5] is 0.305 nM; in assay [2] it was 0.312 nM; in assay [3] it was under 2 nM. In addition, the mGluR5 (FL) cell binding-fold over background in assay [1] is 40.4 fold. This molecule also came in with a pERK Assay Inhibition IC50-nM in assay [4] of 0.15 nM.

Broadly, the EC50 is the concentration giving half of the maximal effect. Higher therefore signals a need for much substance.
